# Publication PMC4705477, “Biochemical Characterization of Nonamer Binding Domain of RAG1 Reveals its Thymine Preference with Respect to Length and Position”
# T1: NBD (nonamer binding domain of RAG1) (mouse, UniProt P15919 384-461)
# T1 sequence: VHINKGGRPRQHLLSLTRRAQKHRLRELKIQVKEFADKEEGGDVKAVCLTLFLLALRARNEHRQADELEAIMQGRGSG
# Target: T1, NBD (nonamer binding domain of RAG1)
# Experiment: EMSA; 5 mM Ca2+; printed as 'binding constant'; NBD EMSA: 10 mM Tris-HCl pH 7.5, 33 mM KCl, 5 mM CaCl2, 2 mM DTT, 0.1 mg/ml BSA, 6% glycerol, 15 min 30 C; cRAG EMSA: 22.5 mM MOPS-KOH pH 7.0, 20% DMSO, 2.2 mM
# Settings: protein: recombinant; tags: N-terminal His6 (pET28a); label: 5' 32P on AKN3; 5' overhang 1 nt at both ends
binder,measurement,value
"23RSS (II, AKN3/AKN4) (dsDNA) DNA 1: GATCAGCTGACAGTAGCACAGTGGTAGTACTCCACTCTCTGGCTGTACAAAAACCCTGCT DNA 2: TAGCAGGGTTTTTGTACAGCCAGAGAGTGGAGTACTACCACTGTGCTACTGTCAGCTGAT",Kd,13.9 ± 3.3 µM
